From US20210301029A1 (LYVGEN BIOPHARMA, published 2021)

T1: human FcγRIIB (human, UniProt P31994 43-310)
T1 construct: whole, on cells; also called CD32b; FcγR2B
T1 sequence (looked up): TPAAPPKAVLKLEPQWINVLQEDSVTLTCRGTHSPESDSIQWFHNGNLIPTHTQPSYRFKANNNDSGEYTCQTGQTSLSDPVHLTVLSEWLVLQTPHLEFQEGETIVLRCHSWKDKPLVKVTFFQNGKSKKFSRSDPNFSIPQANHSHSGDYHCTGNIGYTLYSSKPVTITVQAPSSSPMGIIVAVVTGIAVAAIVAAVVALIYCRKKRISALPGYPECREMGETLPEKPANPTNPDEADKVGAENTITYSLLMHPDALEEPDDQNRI


Assays:
human FcγRIIB = biological target: T1, human FcγRIIB; assay: FACS on CHO cells expressing human FcγRIIB (MFI)
Description: (§1) For FACS analysis of the IgG mutants' binding to different FcγRs, FcγR overexpressing CHO cells were harvested using trypsin-EDTA and were suspended in cold staining buffer (3% BSA in PBS). Test IgG mutants, which were diluted in staining buffer, were added into the cells. The mixture was incubated at 4° C. for 2 hours, and then washed twice with cold staining buffer and re-suspended in PE-labeled anti-human IgG followed by incubation at 4° C. for 2 hours. The mixture was washed twice with staining buffer and re-suspended in 2% PFA in PBS for FACS.

human FcγRI = biological target: T2, human FcγRI (human, UniProt P12314 16-374); assay: FACS on CHO cells expressing human FcγRI (MFI)
T2 construct: whole, on cells; also called CD64
Description: as §1

human FcγRIII = biological target: T3, human FcγRIII (human, UniProt P08637 17-254); assay: FACS on CHO cells expressing human FcγRIIIA (MFI)
T3 construct: whole, on cells; also called FcγRIIIA; CD16a
Description: as §1

T3 sequence (P08637 17-254): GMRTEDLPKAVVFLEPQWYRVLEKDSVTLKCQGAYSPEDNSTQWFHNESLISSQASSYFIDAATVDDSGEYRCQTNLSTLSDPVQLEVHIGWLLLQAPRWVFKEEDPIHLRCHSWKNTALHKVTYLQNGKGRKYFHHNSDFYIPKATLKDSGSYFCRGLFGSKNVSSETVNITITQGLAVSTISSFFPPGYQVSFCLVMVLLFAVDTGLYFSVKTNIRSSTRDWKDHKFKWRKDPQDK
T2 sequence (P12314 16-374): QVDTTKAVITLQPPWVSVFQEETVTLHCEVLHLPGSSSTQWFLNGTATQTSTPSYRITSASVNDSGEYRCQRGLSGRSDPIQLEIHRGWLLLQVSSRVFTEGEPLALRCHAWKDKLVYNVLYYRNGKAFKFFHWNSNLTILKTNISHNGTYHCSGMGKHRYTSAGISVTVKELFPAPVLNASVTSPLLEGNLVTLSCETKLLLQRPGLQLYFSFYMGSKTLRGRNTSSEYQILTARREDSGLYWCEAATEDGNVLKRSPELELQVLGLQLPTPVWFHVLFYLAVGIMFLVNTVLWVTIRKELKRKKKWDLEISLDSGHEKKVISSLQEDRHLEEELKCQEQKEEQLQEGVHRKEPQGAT

binding result (human FcγRIIB)	binding result (human FcγRI)	binding result (human FcγRIII)	Binder
binds	–	–	383-huIgG1m2 (antibody, also called 383-G1m2) heavy: not shown light: DIQMTQSPSSVSASVGDRVTITCRASQGIYSWLAWYQQKPGKAPNLLIYTASTLQSGVPSRFSGSGSGTDFTLTISSLQPEDFATYYCQQANIFPLTFGGGTKVEIKRTVAAPSVFIFPPSDEQLKSGTASVVCLLNNFYPREAKVQWKVDNALQSGNSQESVTEQDSKDSTYSLSSTLTLSKADYEKHKVYACEVTHQGLSSPVTKSFNRGEC
binds	binds	–	383-huIgG1 (antibody, anti-CD40 antibody 383 on a wild-type human IgG1 constant region) heavy chain: not shown light chain: DIQMTQSPSSVSASVGDRVTITCRASQGIYSWLAWYQQKPGKAPNLLIYTASTLQSGVPSRFSGSGSGTDFTLTISSLQPEDFATYYCQQANIFPLTFGGGTKVEIKRTVAAPSVFIFPPSDEQLKSGTASVVCLLNNFYPREAKVQWKVDNALQSGNSQESVTEQDSKDSTYSLSSTLTLSKADYEKHKVYACEVTHQGLSSPVTKSFNRGEC
binds	binds	–	383-huIgG4mAA (antibody) heavy: not shown light: DIQMTQSPSSVSASVGDRVTITCRASQGIYSWLAWYQQKPGKAPNLLIYTASTLQSGVPSRFSGSGSGTDFTLTISSLQPEDFATYYCQQANIFPLTFGGGTKVEIKRTVAAPSVFIFPPSDEQLKSGTASVVCLLNNFYPREAKVQWKVDNALQSGNSQESVTEQDSKDSTYSLSSTLTLSKADYEKHKVYACEVTHQGLSSPVTKSFNRGEC
binds	no binding (tested: 30 µg/mL)	no binding (tested: 30 µg/mL)	383-huIgG2m19 (antibody) heavy: not shown light: DIQMTQSPSSVSASVGDRVTITCRASQGIYSWLAWYQQKPGKAPNLLIYTASTLQSGVPSRFSGSGSGTDFTLTISSLQPEDFATYYCQQANIFPLTFGGGTKVEIKRTVAAPSVFIFPPSDEQLKSGTASVVCLLNNFYPREAKVQWKVDNALQSGNSQESVTEQDSKDSTYSLSSTLTLSKADYEKHKVYACEVTHQGLSSPVTKSFNRGEC
binds	–	no binding (tested: 30 µg/mL)	383-huIgG4m2 (antibody) heavy: not shown light: DIQMTQSPSSVSASVGDRVTITCRASQGIYSWLAWYQQKPGKAPNLLIYTASTLQSGVPSRFSGSGSGTDFTLTISSLQPEDFATYYCQQANIFPLTFGGGTKVEIKRTVAAPSVFIFPPSDEQLKSGTASVVCLLNNFYPREAKVQWKVDNALQSGNSQESVTEQDSKDSTYSLSSTLTLSKADYEKHKVYACEVTHQGLSSPVTKSFNRGEC
–	no binding (tested: 30 µg/mL)	–	383-huIgG1m240 (antibody) heavy: not shown light: DIQMTQSPSSVSASVGDRVTITCRASQGIYSWLAWYQQKPGKAPNLLIYTASTLQSGVPSRFSGSGSGTDFTLTISSLQPEDFATYYCQQANIFPLTFGGGTKVEIKRTVAAPSVFIFPPSDEQLKSGTASVVCLLNNFYPREAKVQWKVDNALQSGNSQESVTEQDSKDSTYSLSSTLTLSKADYEKHKVYACEVTHQGLSSPVTKSFNRGEC
–	no binding (tested: 30 µg/mL)	no binding (tested: 30 µg/mL)	383-huIgG2m2040 (antibody) heavy: not shown light: DIQMTQSPSSVSASVGDRVTITCRASQGIYSWLAWYQQKPGKAPNLLIYTASTLQSGVPSRFSGSGSGTDFTLTISSLQPEDFATYYCQQANIFPLTFGGGTKVEIKRTVAAPSVFIFPPSDEQLKSGTASVVCLLNNFYPREAKVQWKVDNALQSGNSQESVTEQDSKDSTYSLSSTLTLSKADYEKHKVYACEVTHQGLSSPVTKSFNRGEC
binds	binds	–	383-huIgG1m49 (antibody) heavy: not shown light: DIQMTQSPSSVSASVGDRVTITCRASQGIYSWLAWYQQKPGKAPNLLIYTASTLQSGVPSRFSGSGSGTDFTLTISSLQPEDFATYYCQQANIFPLTFGGGTKVEIKRTVAAPSVFIFPPSDEQLKSGTASVVCLLNNFYPREAKVQWKVDNALQSGNSQESVTEQDSKDSTYSLSSTLTLSKADYEKHKVYACEVTHQGLSSPVTKSFNRGEC
no binding (tested: 30 µg/mL)	–	no binding (tested: 30 µg/mL)	383-huIgG4m40 (antibody) heavy: not shown light: DIQMTQSPSSVSASVGDRVTITCRASQGIYSWLAWYQQKPGKAPNLLIYTASTLQSGVPSRFSGSGSGTDFTLTISSLQPEDFATYYCQQANIFPLTFGGGTKVEIKRTVAAPSVFIFPPSDEQLKSGTASVVCLLNNFYPREAKVQWKVDNALQSGNSQESVTEQDSKDSTYSLSSTLTLSKADYEKHKVYACEVTHQGLSSPVTKSFNRGEC
–	no binding (tested: 30 µg/mL)	no binding (tested: 30 µg/mL)	383-huIgG2m43 (antibody) heavy: not shown light: DIQMTQSPSSVSASVGDRVTITCRASQGIYSWLAWYQQKPGKAPNLLIYTASTLQSGVPSRFSGSGSGTDFTLTISSLQPEDFATYYCQQANIFPLTFGGGTKVEIKRTVAAPSVFIFPPSDEQLKSGTASVVCLLNNFYPREAKVQWKVDNALQSGNSQESVTEQDSKDSTYSLSSTLTLSKADYEKHKVYACEVTHQGLSSPVTKSFNRGEC
binds	binds	–	383-huIgG4mPE (antibody) heavy: not shown light: DIQMTQSPSSVSASVGDRVTITCRASQGIYSWLAWYQQKPGKAPNLLIYTASTLQSGVPSRFSGSGSGTDFTLTISSLQPEDFATYYCQQANIFPLTFGGGTKVEIKRTVAAPSVFIFPPSDEQLKSGTASVVCLLNNFYPREAKVQWKVDNALQSGNSQESVTEQDSKDSTYSLSSTLTLSKADYEKHKVYACEVTHQGLSSPVTKSFNRGEC
binds	binds	–	383-huIgG1m50 (antibody) heavy: not shown light: DIQMTQSPSSVSASVGDRVTITCRASQGIYSWLAWYQQKPGKAPNLLIYTASTLQSGVPSRFSGSGSGTDFTLTISSLQPEDFATYYCQQANIFPLTFGGGTKVEIKRTVAAPSVFIFPPSDEQLKSGTASVVCLLNNFYPREAKVQWKVDNALQSGNSQESVTEQDSKDSTYSLSSTLTLSKADYEKHKVYACEVTHQGLSSPVTKSFNRGEC
binds	–	no binding (tested: 30 µg/mL)	383-huIgG4m46 (antibody) heavy: not shown light: DIQMTQSPSSVSASVGDRVTITCRASQGIYSWLAWYQQKPGKAPNLLIYTASTLQSGVPSRFSGSGSGTDFTLTISSLQPEDFATYYCQQANIFPLTFGGGTKVEIKRTVAAPSVFIFPPSDEQLKSGTASVVCLLNNFYPREAKVQWKVDNALQSGNSQESVTEQDSKDSTYSLSSTLTLSKADYEKHKVYACEVTHQGLSSPVTKSFNRGEC
no binding (tested: 30 µg/mL)	–	no binding (tested: 30 µg/mL)	383-huIgG1mAAG (antibody, Anti-CD40 antibody 383 with Fc variant G1mAAG; also called G1mAG) heavy: not shown light: DIQMTQSPSSVSASVGDRVTITCRASQGIYSWLAWYQQKPGKAPNLLIYTASTLQSGVPSRFSGSGSGTDFTLTISSLQPEDFATYYCQQANIFPLTFGGGTKVEIKRTVAAPSVFIFPPSDEQLKSGTASVVCLLNNFYPREAKVQWKVDNALQSGNSQESVTEQDSKDSTYSLSSTLTLSKADYEKHKVYACEVTHQGLSSPVTKSFNRGEC
binds	no binding (tested: 30 µg/mL)	–	383-huIgG1m47 (antibody) heavy: not shown light: DIQMTQSPSSVSASVGDRVTITCRASQGIYSWLAWYQQKPGKAPNLLIYTASTLQSGVPSRFSGSGSGTDFTLTISSLQPEDFATYYCQQANIFPLTFGGGTKVEIKRTVAAPSVFIFPPSDEQLKSGTASVVCLLNNFYPREAKVQWKVDNALQSGNSQESVTEQDSKDSTYSLSSTLTLSKADYEKHKVYACEVTHQGLSSPVTKSFNRGEC
–	no binding (tested: 30 µg/mL)	no binding (tested: 30 µg/mL)	383-huIgG4m30 (antibody) heavy: not shown light: DIQMTQSPSSVSASVGDRVTITCRASQGIYSWLAWYQQKPGKAPNLLIYTASTLQSGVPSRFSGSGSGTDFTLTISSLQPEDFATYYCQQANIFPLTFGGGTKVEIKRTVAAPSVFIFPPSDEQLKSGTASVVCLLNNFYPREAKVQWKVDNALQSGNSQESVTEQDSKDSTYSLSSTLTLSKADYEKHKVYACEVTHQGLSSPVTKSFNRGEC
binds	–	–	383-huIgG1m27 (antibody) heavy: not shown light: DIQMTQSPSSVSASVGDRVTITCRASQGIYSWLAWYQQKPGKAPNLLIYTASTLQSGVPSRFSGSGSGTDFTLTISSLQPEDFATYYCQQANIFPLTFGGGTKVEIKRTVAAPSVFIFPPSDEQLKSGTASVVCLLNNFYPREAKVQWKVDNALQSGNSQESVTEQDSKDSTYSLSSTLTLSKADYEKHKVYACEVTHQGLSSPVTKSFNRGEC
binds	no binding (tested: 30 µg/mL)	–	383-huIgG1m45 (antibody) heavy: not shown light: DIQMTQSPSSVSASVGDRVTITCRASQGIYSWLAWYQQKPGKAPNLLIYTASTLQSGVPSRFSGSGSGTDFTLTISSLQPEDFATYYCQQANIFPLTFGGGTKVEIKRTVAAPSVFIFPPSDEQLKSGTASVVCLLNNFYPREAKVQWKVDNALQSGNSQESVTEQDSKDSTYSLSSTLTLSKADYEKHKVYACEVTHQGLSSPVTKSFNRGEC
